Test system: MS2 coat protein
Assay: apparent KD of MS2 coat protein; designed switch direction (-1 OFF switch, 1 ON switch): -1; higher = weaker reporter binding
How it was run: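 An oligonucleotide input, 200 uM small-molecule ligand, or no input was present during titration of SNAP-549-labelled MS2 coat protein, which was doubled from 0.7 or 1.5 nM to 3 µM. Designed RNA switches had been transcribed on Illumina chips by stalled E. coli RNA polymerase. Apparent KD per design is the median over clusters of curves fitted to normalised cluster fluorescence.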

[1] = input ligand: microRNA oligo, concentration not stated
[2] = Eterna round: R95, input ligand: FMN 200 uM
[3] = Eterna round: R95, input ligand: microRNA oligo, concentration not stated
[4] = Eterna round: R95, input ligand: none

| Sequence | apparent KD of MS2 coat protein (input ligand: FMN 200 uM) [µM] | apparent KD of MS2 coat protein (input ligand: none) [µM] | apparent KD of MS2 coat protein [1] [µM] | apparent KD of MS2 coat protein [2] [µM] | apparent KD of MS2 coat protein [3] [µM] | apparent KD of MS2 coat protein [4] [µM] |
| --- | --- | --- | --- | --- | --- | --- |
| AAGCAUGGAGGAUAUACAUGAGGAUCACCCAUGUCCAGGUCCACGGGUAUUUUGUUGCGUAGAAGGCCAUGUAG [Eternabot (L2) Solution 21] (Eterna round: R97, puzzle: Exclusion 3) | 0.242 | 0.0468 |  |  |  |  |
| UAGUUAUUCACAGGAUAUCGCCUCUUAUUACAUGAGGAUCACCCAUGUUUAUUUUGUUACAUGUUCGAGAAGGGUGUAGUCUUU [JR_ExcNG2_Sub046] (Eterna round: R96, puzzle: Exclusion NG 2) | 0.439 | 0.535 | 0.436 |  |  |  |
| CUUCACCCACCAAAGCUCACCCACAUACCUGCUCUGGUGACAUGAGGAUCACCCAUGUUUUUUGCCCGUCUUAUCUU [Leso] (puzzle: Sensor v3, turn-off variant 2) |  |  |  | 0.0407 | 0.163 | 0.0414 |
| GUCGUGCAGCUUUGCUGUACGAGUACAUGAGGAUCACCCAUGUAGGAUAUGGUACGCUUUGCGUGCUAGAAGGAUAUGUGUAGG [salish99_ExNG3_r04_501] (Eterna round: R96, puzzle: Exclusion NG 3) | 0.0493 | 0.0443 | 0.0417 |  |  |  |
| AUCUCCUCUGUCAGGAUAUAUAAACUGUUGCAGUGGUAGAAGGGACAUGAGGAUCACCCAUGUAAUAUAAAUAA [Bivege] (puzzle: Brourd's mod of Exclusion 4) |  |  |  |  | 0.0266 |  |
| AUAGGAGGAGGAUAUACAUGAGGAUCACCCAUGUGAUCGCCGUAAAAUGCAGUUAGACGUAGAAGGUCUCCCGG [Eternabot (L2) Solution 77] (Eterna round: R97, puzzle: Exclusion 3) | 0.0368 | 0.0347 |  |  |  |  |
| GUCGUGAGACAGGAUAUCCAAUCUAAACACGAGGGAGAAGGGUCUACAUGAGGAUCACCCAUGUGGUCUCAAAA [Aonondiin] (puzzle: Exclusion 6) |  |  |  |  | 0.0172 |  |
| UACUGACAUGAGGAUCACCCAUGUGAGGAUAUUCUCCUGCCAAAUUAAUGGUGGGUGUGAAGAAGGCACAAGGA [EX1 C.12] (Eterna round: R97, puzzle: Exclusion 1) | 0.098 | 0.0291 |  |  |  |  |
| UGCUGACGAGGAUAUACAUGAGGAUCACCCAUGUUGGUUCAGCGACGAUAGUCGCAAUGUAGAAGGCGUCAGCU [E3/9-A3] (Eterna round: R97, puzzle: Exclusion 3) | 0.202 | 0.765 |  |  |  |  |
| GAUUAUGCGAGCUUUAGGGACAUGAGGAUCACCCAUGUUCGUCUUAUUAGUCUGGGUGCGCUAACAUACCUAAAUCU [JMF 53] (puzzle: Sensor v3, turn-off variant 1) |  |  |  | 0.0901 | 0.148 | 0.175 |
| UUGGUUGUGGUAGGAUAUCCGUUGGAAACCGUUGGAGAAGGACCACAGUCACUGGGUCUUUGUUUGGUGGAGUGGAAGAACCAU [pwkr exNG1 F6.19] (Eterna round: R96, puzzle: Exclusion NG 1) | 1.02 | 0.349 | 0.21 |  |  |  |
| UAUUAAUUAAUUAAUUAAUACAUGAGGAUCACCCAUGUAAUUUAAGAUCCUUAUACAAGCUUUGAUCUCGUAAUUAA [Stov1/4-A2] (Eterna round: R97, puzzle: Sensor, turn-off variant 1) | 0.861 | 0.696 |  |  |  |  |
| CGUCCGGCUUCCCUUCAAGACAUGAGGAUCACCCAUGUUUUUGUUUUUGCGAGCUUUUUGCUUUUUGCUCGUCUUGU [Even Better Attempt 2] (puzzle: Sensor v3, turn-off variant 1) |  |  |  | 0.0203 | 0.013 | 0.0187 |
| CGACUAAACGUGAGGAUAUGCGGUGCCAGAACAUUGCAGAAGGCACAUGAGGAUCACCCAUGUGUGGGAGAAGA [Eternabot (L1) Solution 43] (Eterna round: R97, puzzle: Brourd's mod of Exclusion 4) | 0.241 | 0.103 |  |  |  |  |
| UUUACAAGCUUAAGAUCCCACAUGAGGAUCACCCAUGUUCCUGGCCGUGAGGCUAGGUAAACUUAUGCUCGUCUUAU [JL TOV1 3.68] (Eterna round: R97, puzzle: Sensor, turn-off variant 1) | 0.141 | 0.138 |  |  |  |  |
| AGUACCUGAGUACAAUGUAACAUGAGGAUCACCCAUGUAAUUGGGUGAGAACAAGCUCACCGUUCGUCUUAAAUAAA [JL turnoff v1 80] (Eterna round: R96, puzzle: Sensor v2, turn-off variant) | 0.485 | 0.501 | 0.0553 |  |  |  |
| AAUGUUUGAUACCUUUAAUACAUGAGGAUCACCCAUGUUAUCGAGGAUAUGUAGAUGAAAUGAGAACAGAAGGCGAAGUAAGAG [JR_ExcNG3_Sub098] (Eterna round: R96, puzzle: Exclusion NG 3) | 0.0195 | 0.0244 | 0.00973 |  |  |  |

| Sequence | apparent KD of MS2 coat protein (input ligand: FMN 200 uM) [µM] | apparent KD of MS2 coat protein (input ligand: none) [µM] | apparent KD of MS2 coat protein [1] [µM] | apparent KD of MS2 coat protein [2] [µM] | apparent KD of MS2 coat protein [3] [µM] | apparent KD of MS2 coat protein [4] [µM] |
| --- | --- | --- | --- | --- | --- | --- |
| GAGUGUUGAGGAUAUACAUGAGGAUCACCCAUGUGCUUCAGCUAGGAGACUAGCAUUGGUAGAAGGCAGUACUC [Mod of lroppy 9 - Jieux - Exclusion 3] (Eterna round: R97, puzzle: Exclusion 3) | 0.0483 | 0.0371 |  |  |  |  |
| UAUUAGUGAGGAUAUGAGUCGUAGAACAAUAGUACUACGUCUCAGAAGGUACAUGAGGAUCACCCAUGUUCCUU [Fiskers Ex 4 Super Stable 44 mod 34] (puzzle: Exclusion 4) |  |  |  |  | 0.012 |  |
| GAUUAUGCGAGCUUUAGGGACAUGAGGAUCACCCAUGUUCGUCUUGUUGAUCUAGGUACGCUAACAUACCUAAAUCU [JMF 6] (puzzle: Sensor v3, turn-off variant 1) |  |  |  | 0.0197 | 0.0283 | 0.0202 |
| AAAUUAGCAAGUAGAUCCGACAUGAGGAUCACCCAUGUUAUCUGAAAGAACGCAGAAUAAUUGUGAGCUCGUCUAAA [Sensor-V1 #3] (Eterna round: R97, puzzle: Sensor, turn-off variant 1) | 0.162 | 0.181 |  |  |  |  |
| UGAUCUAGCGGAGGAUAUACAUGAGGAUCACCCAUGUAGAUAACAUGACCGUAGUCGUGUAACGUGUAGAAGGCCGCUAGAUCU [JL ENG2 3.68] (Eterna round: R96, puzzle: Exclusion NG 2) | 0.104 | 0.023 | 0.017 |  |  |  |
| AAGAAACAUGAGGAUCACCCAUGUGAGGAUAUGGCCCGCCCGGCGUGAGCUGGAUAAAUCAGAAGGCACAAAGG [salish99_ex1_r4_012] (Eterna round: R97, puzzle: Exclusion 1) | 0.0572 | 0.046 |  |  |  |  |
| GAUGUGAGACAGGAUAUCCACGGGAUAGUCUGAGGAGAAGGGUCUACAUGAGGAUCACCCAUGUGCGUCCCUCA [EX6 B.8] (Eterna round: R97, puzzle: Exclusion 6) | 0.0224 | 0.0155 |  |  |  |  |
| GUCAUCAAACAUGGGAUCAACAUGAGGAUCACCCAUGUUGACAAGUUUUUUGCUCGUCUUAUAAUACGUUUGAUGAC [Mod-Jx] (Eterna round: R97, puzzle: Sensor, turn-off variant 1) | 0.0162 | 0.0155 |  |  |  |  |
| AAUAAGGGAGGAUAUACAUGAGGAUCACCCAUGUUUGUAAUUUAAUUCGGGAGUAUUAGUAGAAGGCCCAAUAA [lam1] (Eterna round: R97, puzzle: Exclusion 3) | 0.278 | 0.0595 |  |  |  |  |
| GGAGAGAGGCAGGAUAUGGGAGGGAGGACCGGACCAGAAGGGUUGACAUGAGGAUCACCCAUGUAGAGAUCCUC [AK-MS2ROC-r4-exclusion6-6.8] (Eterna round: R97, puzzle: Exclusion 6) | 0.563 | 1.14 |  |  |  |  |
| CAGUACUGAGGAUAUACAUGAGGAUCACCCAUGUUGAGAUGAAAAGAAAGAGUUAAAUGUAGAAGGCGGUGCUG [JR_Ex3_Sub047] (Eterna round: R97, puzzle: Exclusion 3) | 0.523 | 0.0711 |  |  |  |  |
| AGUACUAACACGAAAGUGUUAGUGCAAUAAGCUUGUGAAACAUGAGGAUCACCCAUGUCCUCAUAAGCUCGUCUUAU [salish99_TOv2_r3_039] (puzzle: Sensor v3, turn-off variant 2) |  |  |  | 0.0156 | 0.582 | 0.0162 |
| CUAGCGAUUGUAGGAUAUCGGACUGUUUCAGUCUGAGAAGGACAUGAGGAUCACCCAUGUGAAGCAACGUGAGUUGCACGCUAG [JL ENG1 3.83] (Eterna round: R96, puzzle: Exclusion NG 1) | 0.0479 | 0.022 | 0.0138 |  |  |  |
| CCUCCACAUGAGGAUCACCCAUGUCAGGAUAUCGUGCGCGCGUUUUCGGUCUUUCGCGCGAGAAGGGACGACUG (puzzle: Exclusion 1) |  |  |  |  | 0.0241 |  |
| UUACUAUGCCGCCUAAUAGCUUUUUGCUCGUCUUAUAUUACAUGAGGAUCACCCAUGUAGAUCAUGUGGCGUGACCU [JL ViennaUCT Maridi mod 3] (puzzle: Sensor v3, turn-off variant 2) |  |  |  | 0.216 | 0.042 | 0.206 |
| UAUAUAUAGUAAGGAUAUGUAUUUGUUUUAUAAACAGAAGGUACUGACAUGAGGAUCACCCAUGUUUUAGUGUGGGCAUGUAGA [JMF's solution 11] (Eterna round: R96, puzzle: Exclusion NG 1) |  |  | 0.0328 |  |  |  |
| GUAAAGUGAGGAUAUGCUGGAGGUGUAUUCUACGUGUCGAAACAUGAGGAUCACCCAUGUAGAAGGCACGGGCG [Sozaquce] (puzzle: Exclusion 2) |  |  |  |  | 0.01 |  |
